2 molecules from doi:10.1101/659037 can be followed below.

The target in data set [1] is rPrP90-231 (globular domain of recombinant prion protein) (murine, UniProt P04925 90-231). In words: ITC. (In ITC the heat of successive injections is recorded.)
In data set [2] the target is rPrP23-231 (full-length recombinant prion protein) (murine, UniProt P04925 23-231). In words: ITC.

B1: A2 (ssDNA)
DNA: TGGTGGTAACAGACCCTTCCACGGC
As usually defined, the Kd is a measure of binding affinity in units of concentration. For B1, the values for the dissociation constant (Kd) in data set [1] and in data set [2] were 1930 nM and 1470 nM, respectively.

B2: A1 (structured_DNA)
DNA: CCGCGTACAATCGAGCTCGGGTGTC
Take B2: the dissociation constant Kd was 232 nM in data set [1] and 838 nM in data set [2].
